B1: CHIT1 (parent)
chain: CSWKGATKQRIQDQKVPYIFRDNQ

Variants of: B1
Assay: protein stability index of a GFP-peptide fusion (GPS, HEK-293T) (PSI 1-6); higher = more stable
Conditions: c terminus: a fixed tail appended
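Note: lentivirally expressed fusions sorted by FACS into six bins by GFP to DsRed ratio, PSI derived from sequencing read proportions per bin multiplied by bin number.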

| Variant | protein stability index |
| --- | --- |
| CSWKGATKQRIQYQKVPYIFRDNQ [D13Y] | 1.83 |
| CSWKGATKQRIQCQKVPYIFRDNQ [D13C] | 2.47 |
| CSWKGATKQRIQTQKVPYIFRDNQ [D13T] | 2.56 |
| CSWKGATKQRIQFQKVPYIFRDNQ [D13F] | 1.8 |
| CSWKGATKQRIQLQKVPYIFRDNQ [D13L] | 1.75 |
| CSWKGATKQRIQNQKVPYIFRDNQ [D13N] | 1.61 |
| CSWKGATKQRIQAQKVPYIFRDNQ [D13A] | 2.81 |
| CSWKGATKQRIQSQKVPYIFRDNQ [D13S] | 1.73 |
| CSWKGATKQRIQQQKVPYIFRDNQ [D13Q] | 2.31 |
| CSWKGATKQRIQKQKVPYIFRDNQ [D13K] | 1.84 |
| CSWKGATKQRIQRQKVPYIFRDNQ [D13R] | 1.69 |
| CSWKGATKQRIQHQKVPYIFRDNQ [D13H] | 1.78 |
| CSWKGATKQRIQEQKVPYIFRDNQ [D13E] | 2.52 |
| CSWKGATKQRIQWQKVPYIFRDNQ [D13W] | 1.25 |
| CSWKGATKQRIQMQKVPYIFRDNQ [D13M] | 2.91 |
| CSWKGATKQRIQVQKVPYIFRDNQ [D13V] | 2.42 |
| CSWKGATKQRIQPQKVPYIFRDNQ [D13P] | 1.83 |
| CSWKGATKQRIQGQKVPYIFRDNQ [D13G] | 2.15 |
| CSWKGATKQRIQIQKVPYIFRDNQ [D13I] | 1.5 |
| CSWIGATKQRIQDQKVPYIFRDNQ [K4I] | 2.04 |
| CSWWGATKQRIQDQKVPYIFRDNQ [K4W] | 2.12 |
| CSWSGATKQRIQDQKVPYIFRDNQ [K4S] | 2.6 |
| CSWEGATKQRIQDQKVPYIFRDNQ [K4E] | 2.43 |
| CSWPGATKQRIQDQKVPYIFRDNQ [K4P] | 3.33 |

| Variant | protein stability index |
| --- | --- |
| CSWDGATKQRIQDQKVPYIFRDNQ [K4D] | 2.7 |
| CSWTGATKQRIQDQKVPYIFRDNQ [K4T] | 2.49 |
| CSWGGATKQRIQDQKVPYIFRDNQ [K4G] | 2.68 |
| CSWFGATKQRIQDQKVPYIFRDNQ [K4F] | 1.26 |
| CSWYGATKQRIQDQKVPYIFRDNQ [K4Y] | 2.2 |
| CSWVGATKQRIQDQKVPYIFRDNQ [K4V] | 1.94 |
| CSWNGATKQRIQDQKVPYIFRDNQ [K4N] | 2.5 |
| CSWQGATKQRIQDQKVPYIFRDNQ [K4Q] | 3.06 |
| CSWMGATKQRIQDQKVPYIFRDNQ [K4M] | 2.6 |
| CSWHGATKQRIQDQKVPYIFRDNQ [K4H] | 3.06 |
| CSWLGATKQRIQDQKVPYIFRDNQ [K4L] | 1.84 |
| CSWRGATKQRIQDQKVPYIFRDNQ [K4R] | 2.75 |
| CSWKPATKQRIQDQKVPYIFRDNQ [G5P] | 2.38 |
| CSWKFATKQRIQDQKVPYIFRDNQ [G5F] | 1.37 |
| CSWKCATKQRIQDQKVPYIFRDNQ [G5C] | 1.57 |
| CSWKWATKQRIQDQKVPYIFRDNQ [G5W] | 3.45 |
| CSWKYATKQRIQDQKVPYIFRDNQ [G5Y] | 2.12 |
| CSWKLATKQRIQDQKVPYIFRDNQ [G5L] | 2.77 |
| CSWKRATKQRIQDQKVPYIFRDNQ [G5R] | 2.38 |
| CSWKVATKQRIQDQKVPYIFRDNQ [G5V] | 2.32 |
| CSWKKATKQRIQDQKVPYIFRDNQ [G5K] | 2.79 |
| CSWKMATKQRIQDQKVPYIFRDNQ [G5M] | 2.02 |
| CSWKDATKQRIQDQKVPYIFRDNQ [G5D] | 2.67 |
| CSWKNATKQRIQDQKVPYIFRDNQ [G5N] | 2.69 |

| Variant | protein stability index |
| --- | --- |
| CSWKIATKQRIQDQKVPYIFRDNQ [G5I] | 2.11 |
| CSWKSATKQRIQDQKVPYIFRDNQ [G5S] | 3.28 |
| CSWKHATKQRIQDQKVPYIFRDNQ [G5H] | 2.59 |
| CSWKEATKQRIQDQKVPYIFRDNQ [G5E] | 3.34 |
| CSWKTATKQRIQDQKVPYIFRDNQ [G5T] | 2.53 |
| CSWKGATSQRIQDQKVPYIFRDNQ [K8S] | 2.44 |
| CSWKGATFQRIQDQKVPYIFRDNQ [K8F] | 2.21 |
| CSWKGATYQRIQDQKVPYIFRDNQ [K8Y] | 2.4 |
| CSWKGATIQRIQDQKVPYIFRDNQ [K8I] | 2.15 |
| CSWKGATRQRIQDQKVPYIFRDNQ [K8R] | 2.81 |
| CSWKGATWQRIQDQKVPYIFRDNQ [K8W] | 2.03 |
| CSWKGATDQRIQDQKVPYIFRDNQ [K8D] | 2.59 |
| CSWKGATTQRIQDQKVPYIFRDNQ [K8T] | 2.07 |
| CSWKGATQQRIQDQKVPYIFRDNQ [K8Q] | 2.12 |
| CSWKGATLQRIQDQKVPYIFRDNQ [K8L] | 2.77 |
| CSWKGATHQRIQDQKVPYIFRDNQ [K8H] | 2.53 |
| CSWKGATVQRIQDQKVPYIFRDNQ [K8V] | 3.23 |
| CSWKGATPQRIQDQKVPYIFRDNQ [K8P] | 2.23 |
| CSWKGATCQRIQDQKVPYIFRDNQ [K8C] | 1.76 |
| CSWKGATMQRIQDQKVPYIFRDNQ [K8M] | 2.01 |
| CSWKGATEQRIQDQKVPYIFRDNQ [K8E] | 3.19 |
| CSWKGATGQRIQDQKVPYIFRDNQ [K8G] | 2.95 |
| CSWKGATNQRIQDQKVPYIFRDNQ [K8N] | 2.54 |
| CSWKGATAQRIQDQKVPYIFRDNQ [K8A] | 2.58 |

| Variant | protein stability index |
| --- | --- |
| CSWKGATKQMIQDQKVPYIFRDNQ [R10M] | 2.6 |
| CSWKGATKQAIQDQKVPYIFRDNQ [R10A] | 3.57 |
| CSWKGATKQEIQDQKVPYIFRDNQ [R10E] | 3.87 |
| CSWKGATKQTIQDQKVPYIFRDNQ [R10T] | 3.68 |
| CSWKGATKQSIQDQKVPYIFRDNQ [R10S] | 2.81 |
| CSWKGATKQLIQDQKVPYIFRDNQ [R10L] | 2.41 |
| CSWKGATKQGIQDQKVPYIFRDNQ [R10G] | 2.38 |
| CSWKGATKQQIQDQKVPYIFRDNQ [R10Q] | 2.8 |
| CSWKGATKQKIQDQKVPYIFRDNQ [R10K] | 2.67 |
| CSWKGATKQPIQDQKVPYIFRDNQ [R10P] | 2.47 |
| CSWKGATKQWIQDQKVPYIFRDNQ [R10W] | 1.67 |
| CSWKGATKQFIQDQKVPYIFRDNQ [R10F] | 2.5 |
| CSWKGATKQDIQDQKVPYIFRDNQ [R10D] | 2.71 |
| CSWKGATKQCIQDQKVPYIFRDNQ [R10C] | 2.63 |
| CSWKGATKQIIQDQKVPYIFRDNQ [R10I] | 1.64 |
| CSWKGATKQHIQDQKVPYIFRDNQ [R10H] | 2.94 |
| CSWKGATKQVIQDQKVPYIFRDNQ [R10V] | 2.43 |
| CSWKGATKQNIQDQKVPYIFRDNQ [R10N] | 3.46 |
| CSWKGATKQYIQDQKVPYIFRDNQ [R10Y] | 2.54 |
| CSWKGATKQRIQDAKVPYIFRDNQ [Q14A] | 3.46 |
| CSWKGATKQRIQDEKVPYIFRDNQ [Q14E] | 2.79 |
| CSWKGATKQRIQDCKVPYIFRDNQ [Q14C] | 2.6 |

From the supplement of paper PMC10567573
